Measurements published in article PMC7865483 (International Journal of Molecular Sciences, 2021).

B1: 4′-phosphopantothenoylcysteine synthetase (PPCS) (enzyme)
chain: not shown
B2: CoA synthase (CoAsy) (enzyme, human (endogenous in HEK293 and A549), UniProt Q13057 1-564, looked up)
chain: MAVFRSGLLVLTTPLASLAPRLASILTSAARLVNHTLYVHLQPGMSLEGPAQPQSSPVQATFEVLDFITHLYAGADVHRHLDVRILLTNIRTKSTFLPPLPTSVQNLAHPPEVVLTDFQTLDGSQYNPVKQQLVRYATSCYSCCPRLASVLLYSDYGIGEVPVEPLDVPLPSTIRPASPVAGSPKQPVRGYYRGAVGGTFDRLHNAHKVLLSVACILAQEQLVVGVADKDLLKSKLLPELLQPYTERVEHLSEFLVDIKPSLTFDVIPLLDPYGPAGSDPSLEFLVVSEETYRGGMAINRFRLENDLEELALYQIQLLKDLRHTENEEDKVSSSSFRQRMLGNLLRPPYERPELPTCLYVIGLTGISGSGKSSIAQRLKGLGAFVIDSDHLGHRAYAPGGPAYQPVVEAFGTDILHKDGIINRKVLGSRVFGNKKQLKILTDIMWPIIAKLAREEMDRAVAEGKRVCVIDAAVLLEAGWQNLVHEVWTAVIPETEAVRRIVERDGLSEAAAQSRLQSQMSGQQLVEQSHVVLSTLWEPHITQRQVEKAWALLQKRIPKTHQALD

Biological target: T1, Pank1 (pantothenate kinase 1), endogenous in A549 cells (human (endogenous in A549), UniProt Q8TE04 1-598)
T1 construct: pantothenate kinase 1, endogenous in the human lung cancer cell line A549; source: endogenous, A549 cells (fixed cells for PLA)
T1 sequence (Q8TE04 whole entry): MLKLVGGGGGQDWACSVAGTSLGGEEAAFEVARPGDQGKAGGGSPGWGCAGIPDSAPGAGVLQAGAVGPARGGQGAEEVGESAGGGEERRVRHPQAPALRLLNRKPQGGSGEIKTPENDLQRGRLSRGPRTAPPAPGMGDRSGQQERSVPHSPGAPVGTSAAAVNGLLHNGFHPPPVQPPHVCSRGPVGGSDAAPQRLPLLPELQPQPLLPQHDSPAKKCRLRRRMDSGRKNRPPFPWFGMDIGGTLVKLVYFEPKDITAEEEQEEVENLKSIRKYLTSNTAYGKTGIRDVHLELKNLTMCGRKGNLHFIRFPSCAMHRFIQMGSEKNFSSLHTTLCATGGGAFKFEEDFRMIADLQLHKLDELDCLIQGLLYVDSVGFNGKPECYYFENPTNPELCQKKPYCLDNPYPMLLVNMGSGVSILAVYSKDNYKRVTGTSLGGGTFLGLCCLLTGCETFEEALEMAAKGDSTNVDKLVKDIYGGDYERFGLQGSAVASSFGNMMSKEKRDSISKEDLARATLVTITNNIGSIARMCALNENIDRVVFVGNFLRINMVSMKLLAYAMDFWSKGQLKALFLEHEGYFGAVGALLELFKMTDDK
Assay: proximity ligation; in situ PLA (Duolink) on fixed A549 cells, endogenous proteins; cells serum-starved for 24 h, or serum-starved and then treated with 500 μM H2O2
Conditions: partners not purified

| Binder | fold increase of the PLA signal after stress treatments, against control conditions [fold] | fold increase of the PLA signal after 24 h serum starvation, against control cells [fold] |
| --- | --- | --- |
| B1 | ~10 | – |
| B2 | ~10 | ~10 |
